In publication PMC2770657:
Read-outs that look alike come from different tables or passages of the source.

Assays:
Experiment in all cases: EMSA
[1] = target: T1, hPifHD (human Pif1 helicase domain) (Homo sapiens, UniProt Q9H611 206-620)
T1 sequence: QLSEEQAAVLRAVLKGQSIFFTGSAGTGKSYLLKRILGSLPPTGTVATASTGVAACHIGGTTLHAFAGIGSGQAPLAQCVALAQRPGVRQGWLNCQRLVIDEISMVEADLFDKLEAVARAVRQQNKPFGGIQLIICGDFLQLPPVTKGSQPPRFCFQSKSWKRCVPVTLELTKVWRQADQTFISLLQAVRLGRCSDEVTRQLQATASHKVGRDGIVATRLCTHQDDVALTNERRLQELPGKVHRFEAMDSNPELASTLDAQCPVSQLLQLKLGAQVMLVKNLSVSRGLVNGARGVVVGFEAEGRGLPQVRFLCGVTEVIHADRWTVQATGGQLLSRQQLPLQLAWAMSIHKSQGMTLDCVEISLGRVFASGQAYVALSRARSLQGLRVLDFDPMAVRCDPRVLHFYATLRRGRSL

[2] = target: T1, hPifHD (human Pif1 helicase domain); remark: listed apart in the source
hPifHD E307Q = target: T2, hPifHD E307Q (Homo sapiens, UniProt Q9H611 206-620, E307Q)
T2 sequence: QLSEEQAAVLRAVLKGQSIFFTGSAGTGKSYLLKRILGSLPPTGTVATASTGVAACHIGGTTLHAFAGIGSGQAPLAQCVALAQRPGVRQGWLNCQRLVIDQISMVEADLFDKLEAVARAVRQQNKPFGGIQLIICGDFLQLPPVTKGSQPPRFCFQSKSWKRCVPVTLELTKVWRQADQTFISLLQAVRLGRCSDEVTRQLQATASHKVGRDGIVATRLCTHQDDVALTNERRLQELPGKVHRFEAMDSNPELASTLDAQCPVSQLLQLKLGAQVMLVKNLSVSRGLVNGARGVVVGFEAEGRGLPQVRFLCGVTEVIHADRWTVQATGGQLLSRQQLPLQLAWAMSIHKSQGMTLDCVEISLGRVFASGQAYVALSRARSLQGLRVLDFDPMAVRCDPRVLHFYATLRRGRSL

B1: T25 (ssDNA)
DNA: TTTTTTTTTTTTTTTTTTTTTTTTT
B1: no binding [1].

B2: T50 (ssDNA)
DNA: TTTTTTTTTTTTTTTTTTTTTTTTTTTTTTTTTTTTTTTTTTTTTTTTTT
B2: binds [2].

B3: T55 (ssDNA)
DNA: TTTTTTTTTTTTTTTTTTTTTTTTTTTTTTTTTTTTTTTTTTTTTTTTTTTTTTT
B3: binds (hPifHD E307Q).

B4: T35 (ssDNA)
DNA: TTTTTTTTTTTTTTTTTTTTTTTTTTTTTTTTTTT
B4: binds [2].
